The target in one test is T1, GST–eEF2K[1–402]–His6 (human, UniProt O00418 1-402).
T1 sequence: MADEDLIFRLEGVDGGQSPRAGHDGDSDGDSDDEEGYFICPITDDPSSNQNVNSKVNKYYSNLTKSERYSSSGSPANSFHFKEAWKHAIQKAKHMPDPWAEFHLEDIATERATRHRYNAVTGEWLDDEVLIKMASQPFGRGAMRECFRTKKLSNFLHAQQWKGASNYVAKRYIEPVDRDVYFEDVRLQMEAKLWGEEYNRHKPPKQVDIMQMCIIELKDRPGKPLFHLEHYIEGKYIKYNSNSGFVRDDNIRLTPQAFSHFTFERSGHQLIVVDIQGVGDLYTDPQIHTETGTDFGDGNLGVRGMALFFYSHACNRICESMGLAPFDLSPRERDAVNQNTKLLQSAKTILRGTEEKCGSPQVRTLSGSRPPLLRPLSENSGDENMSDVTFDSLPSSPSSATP
Kind of test: ELISA.

Another test concerns the target T2, His6–Zb–eEF2K[48–336] (human, UniProt O00418 48-336).
T2 sequence: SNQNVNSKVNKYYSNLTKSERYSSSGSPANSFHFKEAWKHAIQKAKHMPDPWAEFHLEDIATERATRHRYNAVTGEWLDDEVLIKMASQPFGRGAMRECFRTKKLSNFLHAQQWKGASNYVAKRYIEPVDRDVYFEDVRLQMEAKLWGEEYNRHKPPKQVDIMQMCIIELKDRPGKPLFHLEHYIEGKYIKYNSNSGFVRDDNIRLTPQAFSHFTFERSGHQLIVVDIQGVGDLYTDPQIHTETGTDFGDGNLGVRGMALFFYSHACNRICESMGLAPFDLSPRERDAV
Kind of test: pull-down.

For another test, the target named is T3, eEF2K[48–336] (human, UniProt O00418 48-336).
T3 sequence: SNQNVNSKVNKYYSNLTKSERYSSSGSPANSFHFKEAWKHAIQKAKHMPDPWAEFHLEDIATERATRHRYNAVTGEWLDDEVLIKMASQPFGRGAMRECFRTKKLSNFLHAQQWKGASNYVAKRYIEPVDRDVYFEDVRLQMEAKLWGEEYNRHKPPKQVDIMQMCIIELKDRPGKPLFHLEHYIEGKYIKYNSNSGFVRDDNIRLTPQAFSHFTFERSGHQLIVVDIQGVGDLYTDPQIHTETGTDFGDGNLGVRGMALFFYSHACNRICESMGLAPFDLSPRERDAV
The test can be described thus: SEC.

B1: GST–eEF2K[478–725] (domain or fragment)
chain: SGRVCVEKWNLLNSSRLHLPRASAVALEVQRLNALDLEKKIGKSILGKVHLAMVRYHEGGRFCEKGEEWDQESAVFHLEHAANLGELEAIVGLGLMYSQLPHHILADVSLKETEENKTKGFDYLLKAAEAGDRQSMILVARAFDSGQNLSPDRCQDWLEALHWYNTALEMTDCDEGGEYDGMQDEPRYMMLAREAEMLFTGGYGLEKDPQRSGDLYTQAAEAAMEAMKGRLANQYYQKAEEAWAQMEE
B1: in the test with GST–eEF2K[1–402]–His6, the binding result was “binds”.

B2: His6–eEF2K[490–725] (domain or fragment)
chain: NSSRLHLPRASAVALEVQRLNALDLEKKIGKSILGKVHLAMVRYHEGGRFCEKGEEWDQESAVFHLEHAANLGELEAIVGLGLMYSQLPHHILADVSLKETEENKTKGFDYLLKAAEAGDRQSMILVARAFDSGQNLSPDRCQDWLEALHWYNTALEMTDCDEGGEYDGMQDEPRYMMLAREAEMLFTGGYGLEKDPQRSGDLYTQAAEAAMEAMKGRLANQYYQKAEEAWAQMEE
For the molecule B2, the binding result with His6–Zb–eEF2K[48–336] was “binds”.

B3: eEF2K[490–725] (domain or fragment)
chain: NSSRLHLPRASAVALEVQRLNALDLEKKIGKSILGKVHLAMVRYHEGGRFCEKGEEWDQESAVFHLEHAANLGELEAIVGLGLMYSQLPHHILADVSLKETEENKTKGFDYLLKAAEAGDRQSMILVARAFDSGQNLSPDRCQDWLEALHWYNTALEMTDCDEGGEYDGMQDEPRYMMLAREAEMLFTGGYGLEKDPQRSGDLYTQAAEAAMEAMKGRLANQYYQKAEEAWAQMEE
With B3, the binding result with eEF2K[48–336] was “binds”.

(Values after article PMC3268225 (Biochemical Journal, 2011).)
